Experimental data reported in patent US20210322559A1.
Non-standard residues stand in square brackets, D forms with d. No end group written: not given here. Hyp = O=C(O)[C@@H]1C[C@@H](O)CN1

What was measured:
[1] = molecular target: porcine gelatin (denatured collagen) (porcine); assay: fluorescence; CHP 15 µM premixed into 10% porcine gelatin, 5 washes at 4 °C (FIG. 6B)
[2] = molecular target: porcine gelatin (denatured collagen) (porcine); assay: fluorescence in crosslinked gelatin film after 6 washes at 4 °C (FIG. 6A)

percent removal after washes at 4 °C [1]	percent removal after washes at 4 °C [2]	Binder
> 95%	> 95%	PP[Hyp]GGP[Hyp][Hyp]G[Hyp]G[Hyp]PGPGGGKGGGPGP[Hyp]G[Hyp]G[Hyp][Hyp]PGG[Hyp]PP (also: branched dimer: two arms grown from both amines of Lys19, residues 20-37 are the second arm written reversed, G3K with carboxyfluorescein on the C-terminal Lys attached at branch point Lys19) [5r, (PPOGGPOOGOGOPGP-G3)2KG3K^CF]
> 95%	> 95%	9r, (PGOGPGPOPOGOGPOPGOOPGGOOPPG-G3)2KG3K^CF (also: branched dimer: two arms grown from both amines of Lys31, residues 32-61 are the second arm written reversed, G3K with carboxyfluorescein on the C-terminal Lys attached at branch point Lys31) PG[Hyp]GPGP[Hyp]P[Hyp]G[Hyp]GP[Hyp]PG[Hyp][Hyp]PGG[Hyp][Hyp]PPGGGGKGGGGPP[Hyp][Hyp]GGP[Hyp][Hyp]GP[Hyp]PG[Hyp]G[Hyp]P[Hyp]PGPG[Hyp]GP
> 95%	> 95%	PG[Hyp]PP[Hyp]GGP[Hyp][Hyp]G[Hyp]G[Hyp]PGPGGGKGGGPGP[Hyp]G[Hyp]G[Hyp][Hyp]PGG[Hyp]PP[Hyp]GP (also: branched dimer: two arms grown from both amines of Lys22, residues 23-43 are the second arm written reversed, G3K with carboxyfluorescein on the C-terminal Lys attached at branch point Lys22) [6r, (PGOPPOGGPOOGOGOPGP-G3)2KG3K^CF]
